Results published in patent publication US20160362487A1 (Regeneron, published 2016).

T1: human IL-33 (R&D Systems, #3625-IL-010/CF) (human, UniProt O95760 112-270)
T1 construct: Commercial recombinant protein; also called hIL-33; interleukin-33
T1 sequence (looked up): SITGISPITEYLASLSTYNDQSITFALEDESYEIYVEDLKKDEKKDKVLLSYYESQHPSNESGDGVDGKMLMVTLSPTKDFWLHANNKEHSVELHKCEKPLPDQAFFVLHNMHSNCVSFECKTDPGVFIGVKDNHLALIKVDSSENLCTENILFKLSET

T2: cynomolgus monkey IL-33 expressed with a C-terminal hexahistidine tag (cynomolgus monkey)
T2 construct: also called MfIL-33-6His; Mf-IL-33-6His
T2 chain: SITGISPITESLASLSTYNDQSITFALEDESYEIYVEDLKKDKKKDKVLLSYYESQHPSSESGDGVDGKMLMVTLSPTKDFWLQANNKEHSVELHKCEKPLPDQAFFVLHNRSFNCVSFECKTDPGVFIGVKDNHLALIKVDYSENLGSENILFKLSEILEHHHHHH


Legend:
[1] = target: T1, human IL-33 (R&D Systems, …); assay: SPR 25C pH7.4, mAb captured; no dissociation seen, kd fixed
Procedure: (§1) Equilibrium dissociation constants (KD values) for IL-33 binding to purified anti-IL-33 monoclonal antibodies were determined using a real-time surface plasmon resonance biosensor using a Biacore 4000 instrument. The Biacore sensor surface was first derivatized by amine coupling with either a polyclonal rabbit anti-mouse antibody (GE, # BR-1008-38) or with a monoclonal mouse anti-human Fc antibody (GE, # BR-1008-39) to capture anti-IL-33 monoclonal antibodies expressed with mouse or with human IgG4 constant regions, respectively. All Biacore binding studies were performed in 0.01M ADA pH 7.4, 0.15M NaCl, 3 mM EDTA, and 0.05% v/v Surfactant Tween-20 (ABS-ET running buffer). […] Association of either hIL-33 or MfIL-33-6His to the captured monoclonal antibody was monitored for 4 minutes and their dissociation in ABS-ET running buffer was monitored for 10 minutes. […] To achieve this, association of either hIL-33 or MfIL-33-6His to the captured monoclonal antibody was monitored for 4 minutes in ABS-ET running buffer. Following a 30 second dissociation of either hIL-33 or MfIL-33-6His in ABS-ET running buffer, ABS-ET pH6 buffer was injected for 3 minutes, and the analyte dissociation under the low-pH conditions was measured. […] Binding dissociation equilibrium constants (KD) and dissociative half-lives (t½) were calculated from the kinetic rate constants as: […]

[2] = target: T1, human IL-33 (R&D Systems, …); assay: SPR 25C pH7.4, mAb captured; lower limit, kd fixed
Procedure: as §1

[3] = target: T1, human IL-33 (R&D Systems, …); assay: SPR 25C pH7.4, mAb captured; upper limit, kd fixed
Procedure: as §1

[4] = target: T1, human IL-33 (R&D Systems, …); assay: SPR 37C, pH6.0 chase, mAb captured
Procedure: (§2) Equilibrium dissociation constants (KD values) for IL-33 binding to purified anti-IL-33 monoclonal antibodies were determined using a real-time surface plasmon resonance biosensor using a Biacore 4000 instrument. The Biacore sensor surface was first derivatized by amine coupling with either a polyclonal rabbit anti-mouse antibody (GE, # BR-1008-38) or with a monoclonal mouse anti-human Fc antibody (GE, # BR-1008-39) to capture anti-IL-33 monoclonal antibodies expressed with mouse or with human IgG4 constant regions, respectively. All Biacore binding studies were performed in 0.01M ADA pH 7.4, 0.15M NaCl, 3 mM EDTA, and 0.05% v/v Surfactant Tween-20 (ABS-ET running buffer). […] Association of either hIL-33 or MfIL-33-6His to the captured monoclonal antibody was monitored for 4 minutes and their dissociation in ABS-ET running buffer was monitored for 10 minutes. The effect of reduced pH on the binding of each anti-IL-33 antibody to either hIL-33 or MfIL-33-6His was studied using an in-line pH chase assay format in 0.01M ADA pH 6.0, 0.15M NaCl, 3 mM EDTA, and 0.05% v/v Surfactant Tween-20 (ABS-ET pH6 buffer). To achieve this, association of either hIL-33 or MfIL-33-6His to the captured monoclonal antibody was monitored for 4 minutes in ABS-ET running buffer. Following a 30 second dissociation of either hIL-33 or MfIL-33-6His in ABS-ET running buffer, ABS-ET pH6 buffer was injected for 3 minutes, and the analyte dissociation under the low-pH conditions was measured. All the binding kinetic experiments were performed at both 25° C. and 37° C. Kinetic association (kₐ) and dissociation (kd) constants were determined by fitting the real-time sensorgrams to a 1:1 binding model using Scrubber 2.0c curve fitting software. Binding dissociation equilibrium constants (KD) and dissociative half-lives (t½) were calculated from the kinetic rate constants as: […]

[5] = target: T2, cynomolgus monkey IL-33 expressed with …; assay: SPR 37C, pH6.0 chase, mAb captured
Procedure: as §2

[6] = target: T1, human IL-33 (R&D Systems, …); assay: SPR 25C, pH6.0 chase, mAb captured
Procedure: as §2

[7] = target: T2, cynomolgus monkey IL-33 expressed with …; assay: SPR 25C, pH6.0 chase, mAb captured
Procedure: as §2

[8] = target: T1, human IL-33 (R&D Systems, …); assay: cell-based or functional assay
[9] = target: T3, pre-formed complex of hIL-33 and captured hST2-MMH (human, UniProt O95760 112-270); assay: SPR Biacore T-200, 25C
T3 construct: Ligand-receptor complex on the sensor: hST2-MMH captured by anti-myc mAb and saturated with 100 nM hIL-33; also called hIL-33 pre-complexed with hST2-MMH
Procedure: The ability of anti-IL-33 antibodies to bind to a pre-formed complex of IL-33 with ST2 was tested using Biacore T-200 instrument equipped with a real-time surface plasmon resonance biosensor. The experiment was performed at 25° C. with a running buffer composed of 0.01M HEPES pH 7.4, 0.15M NaCl, 3 mM EDTA, and 0.05% v/v Surfactant Tween-20 (HBS-ET). […] The captured hST2-MMH surface was then saturated by injecting 100 nM of human IL-33 (hIL-33; R&D Systems, #3625-IL-010/CF) for 3 minutes followed by a 3 minute injection of a 100 nM solution of the anti-IL-33 monoclonal antibody. The real-time binding response was monitored during the entire course of the experiment, and the observed binding response at 3 minutes after injection of anti-IL-33 antibody to the pre-formed complex of hIL-33 and captured hST2-MMH was recorded and tabulated and shown in Table 7. No non-specific binding of anti-IL-33 monoclonal antibody to the anti-myc tag capture surface was observed.

Row | koff [1] | t½ [2] | Kd [3] | koff [4] | t½ [4] | t½ Ratio (pH 7.4/pH 6.0) [4] | koff [5] | t½ [5] | t½ Ratio (pH 7.4/pH 6.0) [5] | koff [6] | t½ [6] | t½ Ratio (pH 7.4/pH 6.0) [6] | koff [7] | t½ [7] | t½ Ratio (pH 7.4/pH 6.0) [7] | IC50, blocking of IFN-γ release from human PBMC induced by 260 pM hIL-33, donor #603486 [8] | IC50, blocking of IFN-γ release from human PBMC induced by 260 pM hIL-33, donor #603487 [8] | binding result [9] | Binder
1 | ≤ 1e-05 s⁻¹ | ≥ 1160 min | ≤ 0.0788 nM | 0.000967 s⁻¹ | 12 min | 3.4 | 0.00115 s⁻¹ | 10 min | 2.9 | 0.00011 s⁻¹ | 105 min | 11 | 0.000126 s⁻¹ | 91 min | 1.3 |  |  |  | H1M9566N (antibody, mouse IgG1, V domains shown, Human variable domains, mouse IgG1 Fc (H1M)) VH: EVQLLESGGDLVQPGGSLRLSCAASGFTFSSYAMSWVRQAPGKGLEWVSVISGSGSSTDYADSVKGRFTISRDNSRDTLHLQMNSLRAEDTAVYYCAKTFYYFYGLDVWGQGTTVTVSS VL: DIQMTQSPSSLSASLRDRVTITCRASQGISNYLAWYQQKPGKVPKVLIYAASTLQSGVPSRFSGSGSGTVFTLTISSLQTEDVATYYCQKYSSAPFTFGPGTKVDIK
2 |  |  |  | 0.00383 s⁻¹ | 3 min | 6.2 | 0.00168 s⁻¹ | 7 min | 1.1 | 0.000826 s⁻¹ | 14 min | 3.3 | 0.000117 s⁻¹ | 99 min | 0.3 | 9.64e-10 M | 3.02e-09 M | no binding (tested: 100 nM) | H4H9662P (antibody, V domains shown, Human IgG4 Fc (H4H)) VH: EVQLVESGGGLVQPGGSLRLSCAASGFTFSSYALTWVRQAPGKGLEWVSFISGSGGRPFYADSVKGRFTISRDNSKNMLYLQMNSLRAEDTAIYYCAKSLYTTSWYGGFDSWGQGTLVTVSS VL: DIQMTQSPSSVSASVGDRVTITCRASQGVVSWLAWYQQKPGKAPKLLIYAASSLQSGVPSRFSGSGSGTDFTLTISSLQPEDFATYYCQQSNSFPFTLGPGTKVDIK
3 |  |  |  | 0.00965 s⁻¹ | 1 min | 6.7 | 0.004 s⁻¹ | 2.9 min | 1.9 | 0.00212 s⁻¹ | 5 min | 4.5 | 0.000753 s⁻¹ | 15 min | 1.3 | 1.04e-08 M | 2.34e-08 M | no binding (tested: 100 nM) | H4H9665P (antibody, human IgG4, V domains shown, Human IgG4 Fc (H4H)) VH: EVQLVESGGGLVQPGGSLRLSCAASGFTFSNYAMTWVRQAPGKGLEWVSTISGSGDNTYYADSVQGRFTISRGHSKNTLYLQMNSLRAEDTAVYYCAKPTYSRSWYGAFDFWGQGTMVTVSS VL: DIQMTQSPSSVSASVGDRVTITCRASQGISSWLAWYQQKPGKAPQLLIYAASRLQSGVPSRFWGSGSGTDFTLTISSLQPEDFATYYCQQANNFPFTFGPGTKVDIK
